Laboratory results reported in patent US20150218227.

How the values were obtained:
[1] = target: PPR10 ND variant motifs 6 and 7 (position 6, 1') changed to N6,D1' (Zea mays) (UniProt B8Y6I0); assay: EMSA; details: RNA 15 pM
[2] = target: PPR10 NS variant motifs 6 and 7 (position 6, 1') changed to N6,S1' (Zea mays) (UniProt B8Y6I0); assay: EMSA; details: RNA 15 pM

Substance	Kd [1] [nM]	Kd [2] [nM]
atpH CC-substituted RNA	17	9
atpH UU-substituted RNA	3	20
